The values below come from patent publication US20190352352A1.

The target of assay [1] is TGase-polymerized intact casein (CN-TG). The assay can be described thus: casein-specific ELISA kit. (An ELISA detects its analyte on a solid surface through an enzyme-linked reagent.)
The target in assay [2] is TG polymers of chymotryptic WPI hydrolysate (chymotryptic-WPIH-TG). The assay can be described thus: β-lactoglobulin-specific competitive ELISA kit.
In assay [3] the target is TG polymers of thermolysin WPI hydrolysate (thermolysin-WPIH-TG). Kind of assay: β-lactoglobulin-specific competitive ELISA kit.
Assay [4] addresses TGase-polymerized native WPI (WPI-TG). The assay can be described thus: β-lactoglobulin-specific competitive ELISA kit.
Assay [5] concerns the target chymotryptic hydrolysate of WPI (chymotryptic-WPIH). Kind of assay: β-lactoglobulin-specific competitive ELISA kit.
Assay [6] has as its target repolymerized tryptic WPI hydrolysate (tryptic-WPIH-TG). Kind of assay: β-lactoglobulin-specific competitive ELISA kit.
Assay [7] has as its target thermolysin hydrolysate of WPI (thermolysin-WPIH). Kind of assay: β-lactoglobulin-specific competitive ELISA kit.
For assay [8], the target named is tryptic hydrolysate of WPI (tryptic-WPIH). The assay can be described thus: β-lactoglobulin-specific competitive ELISA kit.
Assay [9] concerns the target native WPI digests (peptides released during simulated gastric and duodenal digestion of native WPI). The assay can be described thus: β-lactoglobulin-specific competitive ELISA kit, time course of in vitro digestion.
The target in assay [10] is thermolysin-WPIH-TG polymer digest (peptides released during simulated gastric and duodenal digestion). Described as above.

“And” between values parts separate entries of the source, which are not always exact repeats. Equal values may be shown once.

The substance “antibody of the AgraQuant F.A.S.T Casein ELISA test kit (Romer Labs Inc.)” displayed an immunoreactivity (% of casein control) (% of casein control) in assay [1] of 70.

As for “antibody of the … β-lactoglobulin test kit (β-lactoglobulin-specific competitive ELISA kit, R-Biopharm AG)”, the immunoreactivity (% of native WPI control) (% of native WPI control) in assay [2] was 44; in assay [3], 6; in assay [4], 78; in [5], 83; in assay [6], 29 to 31; in assay [7], 18. Besides, the immunoreactivity (% of native WPI control) (% of native WPI control) in assay [8] worked out at 29. The immunoreactivity (%) in assay [9] was 5 to 20%; in [10], 5% and < 5%.
